Data set [1] concerns the target AtNF-YA2;AtNF-YB2;AtNF-YC3 (Arabidopsis thaliana;Arabidopsis …, UniProt Q9M9X4;Q9FGJ3;Q9ZVL3 134-207;24-116;55-148, ||). Kind of data set: EMSA; efficiency similar to NF-YA6 trimer; 12 mM Tris-HCl pH 8.0, 50 mM NaCl, 50 mM KCl, 5 mM MgCl2, 0.5 mM EDTA, 12% glycerol, 0.2 mg/mL BSA, 2.5 mM DTT, 100 ng poly(dA:dT), 20 nM Cy5 probe, 30 C 30 min; 6% PAGE in 0.25X TBE. To be noted: protein: recombinant;recombinant;recombinant; tags: 6His;6His removed by thrombin;; copies: 1;1;1; label: Cy5 5'.

The target in data set [2] is T1, AtNF-YA6;AtNF-YB2;AtNF-YC3 (Arabidopsis thaliana;Arabidopsis …, UniProt Q9LVJ7;Q9FGJ3;Q9ZVL3 170-237;24-116;55-148, ||). Kind of data set: EMSA; 12 mM Tris-HCl pH 8.0, 50 mM NaCl, 50 mM KCl, 5 mM MgCl2, 0.5 mM EDTA, 12% glycerol, 0.2 mg/mL BSA, 2.5 mM DTT, 100 ng poly(dA:dT), 20 nM Cy5 probe, 30 C 30 min; 6% PAGE in 0.25X TBE. To be noted: protein: recombinant;recombinant;recombinant; tags: 6His;6His removed by thrombin;; copies: 1;1;1; label: Cy5 5'.

Data set [3] concerns the target T1, AtNF-YA6;AtNF-YB2;AtNF-YC3. The data set is described as follows: competition EMSA; similar rates, WT A least preferred; 12 mM Tris-HCl pH 8.0, 50 mM NaCl, 50 mM KCl, 5 mM MgCl2, 0.5 mM EDTA, 12% glycerol, 0.2 mg/mL BSA, 2.5 mM DTT, 100 ng poly(dA:dT), 20 nM Cy5 probe, 30 C 30 min; 6% PAGE in 0.25X TBE. To be noted: protein: recombinant;recombinant;recombinant; tags: 6His;6His removed by thrombin;; copies: 1;1;1.

Data set [4] concerns the target T1, AtNF-YA6;AtNF-YB2;AtNF-YC3. The data set is described as follows: competition EMSA; preferred over WT; 12 mM Tris-HCl pH 8.0, 50 mM NaCl, 50 mM KCl, 5 mM MgCl2, 0.5 mM EDTA, 12% glycerol, 0.2 mg/mL BSA, 2.5 mM DTT, 100 ng poly(dA:dT), 20 nM Cy5 probe, 30 C 30 min; 6% PAGE in 0.25X TBE. To be noted: protein: recombinant;recombinant;recombinant; tags: 6His;6His removed by thrombin;; copies: 1;1;1.

The target in data set [5] is T1, AtNF-YA6;AtNF-YB2;AtNF-YC3. Kind of data set: competition EMSA; 12 mM Tris-HCl pH 8.0, 50 mM NaCl, 50 mM KCl, 5 mM MgCl2, 0.5 mM EDTA, 12% glycerol, 0.2 mg/mL BSA, 2.5 mM DTT, 100 ng poly(dA:dT), 20 nM Cy5 probe, 30 C 30 min; 6% PAGE in 0.25X TBE. To be noted: protein: recombinant;recombinant;recombinant; tags: 6His;6His removed by thrombin;; copies: 1;1;1.
Data set [6] deals with T1, AtNF-YA6;AtNF-YB2;AtNF-YC3. Kind of data set: competition EMSA; highest affinity at -3; 12 mM Tris-HCl pH 8.0, 50 mM NaCl, 50 mM KCl, 5 mM MgCl2, 0.5 mM EDTA, 12% glycerol, 0.2 mg/mL BSA, 2.5 mM DTT, 100 ng poly(dA:dT), 20 nM Cy5 probe, 30 C 30 min; 6% PAGE in 0.25X TBE. To be noted: protein: recombinant;recombinant;recombinant; tags: 6His;6His removed by thrombin;; copies: 1;1;1.

Data set [7] has as its target T1, AtNF-YA6;AtNF-YB2;AtNF-YC3. The data set is described as follows: competition EMSA; better than WT; 12 mM Tris-HCl pH 8.0, 50 mM NaCl, 50 mM KCl, 5 mM MgCl2, 0.5 mM EDTA, 12% glycerol, 0.2 mg/mL BSA, 2.5 mM DTT, 100 ng poly(dA:dT), 20 nM Cy5 probe, 30 C 30 min; 6% PAGE in 0.25X TBE. To be noted: protein: recombinant;recombinant;recombinant; tags: 6His;6His removed by thrombin;; copies: 1;1;1.

In data set [8] the target is T1, AtNF-YA6;AtNF-YB2;AtNF-YC3. Kind of data set: competition EMSA; purines preferred at +2; 12 mM Tris-HCl pH 8.0, 50 mM NaCl, 50 mM KCl, 5 mM MgCl2, 0.5 mM EDTA, 12% glycerol, 0.2 mg/mL BSA, 2.5 mM DTT, 100 ng poly(dA:dT), 20 nM Cy5 probe, 30 C 30 min; 6% PAGE in 0.25X TBE. To be noted: protein: recombinant;recombinant;recombinant; tags: 6His;6His removed by thrombin;; copies: 1;1;1.

Data set [9] addresses T1, AtNF-YA6;AtNF-YB2;AtNF-YC3. The data set is described as follows: competition EMSA; equal to WT; 12 mM Tris-HCl pH 8.0, 50 mM NaCl, 50 mM KCl, 5 mM MgCl2, 0.5 mM EDTA, 12% glycerol, 0.2 mg/mL BSA, 2.5 mM DTT, 100 ng poly(dA:dT), 20 nM Cy5 probe, 30 C 30 min; 6% PAGE in 0.25X TBE. To be noted: protein: recombinant;recombinant;recombinant; tags: 6His;6His removed by thrombin;; copies: 1;1;1.

In data set [10] the target is T1, AtNF-YA6;AtNF-YB2;AtNF-YC3. Kind of data set: competition EMSA; higher affinity; 12 mM Tris-HCl pH 8.0, 50 mM NaCl, 50 mM KCl, 5 mM MgCl2, 0.5 mM EDTA, 12% glycerol, 0.2 mg/mL BSA, 2.5 mM DTT, 100 ng poly(dA:dT), 20 nM Cy5 probe, 30 C 30 min; 6% PAGE in 0.25X TBE. To be noted: protein: recombinant;recombinant;recombinant; tags: 6His;6His removed by thrombin;; copies: 1;1;1.

T1 sequence (Q9LVJ7 170-237, chain 1 of 3): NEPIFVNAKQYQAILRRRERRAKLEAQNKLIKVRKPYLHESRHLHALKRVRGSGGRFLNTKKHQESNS
T1 sequence (Q9FGJ3 24-116, chain 2 of 3): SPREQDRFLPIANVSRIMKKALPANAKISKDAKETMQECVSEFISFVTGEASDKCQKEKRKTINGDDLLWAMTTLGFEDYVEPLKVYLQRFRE
T1 sequence (Q9ZVL3 55-148, chain 3 of 3): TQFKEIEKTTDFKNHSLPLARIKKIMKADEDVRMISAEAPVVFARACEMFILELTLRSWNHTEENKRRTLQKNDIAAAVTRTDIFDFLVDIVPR
Chain of AtNF-YA2;AtNF-YB2;AtNF-YC3 (Q9M9X4 134-207, chain 1 of 3): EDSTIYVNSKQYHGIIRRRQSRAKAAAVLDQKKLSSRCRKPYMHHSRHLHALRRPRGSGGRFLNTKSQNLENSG
Chain of AtNF-YA2;AtNF-YB2;AtNF-YC3 (Q9FGJ3 24-116, chain 2 of 3): as the sequence (Q9FGJ3 24-116, chain 2 of 3) above
Chain of AtNF-YA2;AtNF-YB2;AtNF-YC3 (Q9ZVL3 55-148, chain 3 of 3): as the sequence (Q9ZVL3 55-148, chain 3 of 3) above

B1: CAB2 (-65) CCAAT 31 bp probe (dsDNA)
DNA 1: CTTAAAATCCAATGAATGAACAGATAAAGAT
DNA 2: ATCTTTATCTGTTCATTCATTGGATTTTAAG
As to B1, the binding result in [1] and in [2] was “binds” in each case.

B2: CAB2 A15G (dsDNA)
DNA 1: CTTAAAATCCAATGAGTGAACAGATAAAGAT
DNA 2: ATCTTTATCTGTTCACTCATTGGATTTTAAG
For the molecule B2, the binding result in [3] was “binds”.

B3: CAB2 T7A (dsDNA)
DNA 1: CTTAAAAACCAATGAATGAACAGATAAAGAT
DNA 2: ATCTTTATCTGTTCATTCATTGGTTTTTAAG
For the molecule B3, in [4], the binding result was “binds”.

B4: CAB2 G13C (dsDNA)
DNA 1: CTTAAAATCCAATCAATGAACAGATAAAGAT
DNA 2: ATCTTTATCTGTTCATTGATTGGATTTTAAG
B4: the binding result in [4] is reported as “binds”.

B5: CAB2 WT competitor 31 bp (dsDNA)
DNA 1: CTTAAAATCCAATGAATGAACAGATAAAGAT
DNA 2: ATCTTTATCTGTTCATTCATTGGATTTTAAG
B5: the binding result in data set [5] is given as “binds”.

B6: CAB2 A5T (dsDNA)
DNA 1: CTTAATATCCAATGAATGAACAGATAAAGAT
DNA 2: ATCTTTATCTGTTCATTCATTGGATATTAAG
As to B6, the binding result in [6] is given as “binds”.

B7: CAB2 A6G (dsDNA)
DNA 1: CTTAAAGTCCAATGAATGAACAGATAAAGAT
DNA 2: ATCTTTATCTGTTCATTCATTGGACTTTAAG
In the case of B7, the binding result in data set [7] is reported as “binds”.

B8: CAB2 T7G (dsDNA)
DNA 1: CTTAAAAGCCAATGAATGAACAGATAAAGAT
DNA 2: ATCTTTATCTGTTCATTCATTGGCTTTTAAG
With B8, the binding result in data set [4] is “binds”.

B9: CAB2 A6C (dsDNA)
DNA 1: CTTAAACTCCAATGAATGAACAGATAAAGAT
DNA 2: ATCTTTATCTGTTCATTCATTGGAGTTTAAG
With B9, the binding result in [7] was “binds”.

B10: CAB2 A15C (dsDNA)
DNA 1: CTTAAAATCCAATGACTGAACAGATAAAGAT
DNA 2: ATCTTTATCTGTTCAGTCATTGGATTTTAAG
B10: the binding result in data set [3] is “binds”.

B11: CAB2 A14G (dsDNA)
DNA 1: CTTAAAATCCAATGGATGAACAGATAAAGAT
DNA 2: ATCTTTATCTGTTCATCCATTGGATTTTAAG
B11: in data set [8], the binding result was “binds”.

B12: CAB2 A6T (dsDNA)
DNA 1: CTTAAATTCCAATGAATGAACAGATAAAGAT
DNA 2: ATCTTTATCTGTTCATTCATTGGAATTTAAG
Turning to B12, the binding result in [9] was “binds”.

B13: CAB2 A15T (dsDNA)
DNA 1: CTTAAAATCCAATGATTGAACAGATAAAGAT
DNA 2: ATCTTTATCTGTTCAATCATTGGATTTTAAG
With B13, in [3], the binding result is on record as “binds”.

B14: CAB2 T16A (dsDNA)
DNA 1: CTTAAAATCCAATGAAAGAACAGATAAAGAT
DNA 2: ATCTTTATCTGTTCTTTCATTGGATTTTAAG
Consider B14, for which the binding result in data set [10] is “binds”.

These data come from paper PMC6843132, “The Plant NF-Y DNA Matrix In Vitro and In Vivo”.
